Experiment [1] addresses T1, VAP-1 (Homo sapiens, UniProt Q16853).
T1 sequence (Q16853 1-763): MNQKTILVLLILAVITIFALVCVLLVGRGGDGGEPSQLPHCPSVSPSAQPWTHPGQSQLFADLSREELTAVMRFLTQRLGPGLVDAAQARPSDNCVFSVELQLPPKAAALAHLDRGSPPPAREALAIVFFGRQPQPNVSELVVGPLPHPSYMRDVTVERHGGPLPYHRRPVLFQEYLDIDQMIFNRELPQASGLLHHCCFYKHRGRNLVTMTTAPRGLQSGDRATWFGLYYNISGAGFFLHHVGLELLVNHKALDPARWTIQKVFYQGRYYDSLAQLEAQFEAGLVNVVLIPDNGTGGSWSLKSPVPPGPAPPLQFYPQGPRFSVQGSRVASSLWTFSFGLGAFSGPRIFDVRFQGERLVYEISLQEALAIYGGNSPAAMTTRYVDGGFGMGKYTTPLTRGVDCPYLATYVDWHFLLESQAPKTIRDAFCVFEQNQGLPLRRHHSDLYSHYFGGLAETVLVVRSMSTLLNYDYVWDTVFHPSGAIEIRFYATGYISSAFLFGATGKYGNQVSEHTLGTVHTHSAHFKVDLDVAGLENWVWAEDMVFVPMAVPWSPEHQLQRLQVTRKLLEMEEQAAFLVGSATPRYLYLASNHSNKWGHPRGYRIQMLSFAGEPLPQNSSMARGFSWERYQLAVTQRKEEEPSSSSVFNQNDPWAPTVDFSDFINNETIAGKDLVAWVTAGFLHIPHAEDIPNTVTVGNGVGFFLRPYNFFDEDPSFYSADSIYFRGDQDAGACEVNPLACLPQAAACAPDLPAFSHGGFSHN
Conditions: computer docking simulations, literature; cited from earlier work.

In experiment [2] the target is T1, VAP-1. As to the kind of experiment: Fluorometric detection of SSAO-mediated H2O2 formation (Amplex Red) with VAP-1 transfected CHO cells. Type of experiment: biochemical. Details: The CHO cells stably transfected with the cDNA encoding VAP-1 was used; expressed in transfected cells; host or cells: CHO cells, stably transfected. Conditions: for inhibition of the activity (VAP-1 SSAO): methylamine substrate. Here is the method:
Cells. The CHO cells stably transfected with the cDNA encoding VAP-1 was used. The VAP-1 expression level of these cells was confirmed by staining with anti-VAP-1 monoclonal antibodies and subsequent flow cytometric analyses. The VAP-1 transfectants were grown into the confluence, detached, counted and equal numbers were divided to 96 well plates for enzymatic assays.
Fluorometric detection of SSAO-mediated H2O2 formation. Amine oxidase activities were measured using a highly sensitive and stable probe for H2O2 Amplex Red reagent (Molecular Probes Europe BV) as described previously (Salmi et al., 2001). The enzymes were incubated in white microplates in the final volume of 200 μl KRPG containing various concentrations of the tested peptides, 0.8 U/ml horseradish peroxidase, 60 μM Amplex Red reagent, and methylamine as preferred amine substrate for SSAO. Fluorescence intensity of the samples was measured using Tecan ULTRA fluoropolarometer (excitation/emission wavelengths 545/595 nm). To evaluate the amount of H2O2 formed via SSAO-mediated reaction, specific enzyme inhibitor semicarbazide (200 μM) was included in the control well, and these values were subtracted from the total amount of H2O2 formed. To test whether the peptides could interfere with fluorometric H2O2 detection, H2O2 concentrations were calculated from calibration curves generated by serial dilutions of standard H2O2 in the presence of various concentrations of peptides. All calibration curves show linear dependence of the measured fluorescence intensity vs. H2O2 concentration in the presence of peptides in concentrations less than 250 micrograms/ml.

The mark [3] stands for this setting: peptide concentration 10 micrograms/ml.
The mark [4] stands for this setting: peptide concentration 100 micrograms/ml.

“Also recorded” adds a separate entry of the source.

Take “GGGKKGG (VAP-1 targeting peptide) [previously disclosed lysine containing peptide]”: in the experiment with VAP-1 [1], the “binding to the active site of VAP-1 in docking” value (“binding to the active site” below) is “bind optimally”.

“GGGKEGG (VAP-1 targeting peptide) [previously disclosed lysine containing peptide]”: the “binding to the active site” value with VAP-1 [1] is given as “bind optimally”.

In the case of “GGGKGGG (VAP-1 targeting peptide) [previously disclosed lysine containing peptide]”, the “binding to the active site” value with VAP-1 [1] was “bind optimally”.

Turning to GGGGKYGGG (VAP-1 targeting peptide), in the experiment with VAP-1 [2] (comparison in words), the “VAP-1 inhibiting activity compared with earlier lysine containing peptides” value is on record as “stronger than that of the previously disclosed lysine containing peptides; also recorded: more potent inhibitor of VAP-1 than GGGGKGGGG”. Also, the “inhibition of the activity (VAP-1 SSAO)” value is given as 33.5% with VAP-1 [2] (setting [3]) and 42.8% in the experiment with VAP-1 [2] (setting [4]).

With GGGGKGGGG (VAP-1 targeting peptide), the “binding to the active site” value in the experiment with VAP-1 [1] is recorded as “bind optimally”. Besides, the “inhibition of the activity (VAP-1 SSAO)” value in the experiment with VAP-1 [2] (setting [3]) is 17.4%; in the experiment with VAP-1 [2] (setting [4]), 20.3%.

The values above are taken from patent US20080213176A1, “Compositions for Targeting Amine Oxidases in Vivo” (priority 2005, published 2008).
